Source: PMC10097602, “Ubiquitin-like conjugation by bacterial cGAS enhances anti-phage defence” (Nature, 2023)

Assays:
cGAMP = assay: ITC; conditions: for Kd: parent: 31.4 nM; for other: ΔH: parent: -24.9 kcal/mol; for other: ΔS: parent: -50.6
Vs.4 = target: T1, Vs.4 (Tequatrovirus T4, UniProt P13314); assay: isothermal titration calorimetry (VP-ITC), global fit of three titrations; assay type: binding
T1 construct: gene acb2; residues 1-88, full length; SUMO fusion with His6, tag cleaved by ULP1; E. coli BL21(DE3)pLysS
T1 sequence (P13314 1-88): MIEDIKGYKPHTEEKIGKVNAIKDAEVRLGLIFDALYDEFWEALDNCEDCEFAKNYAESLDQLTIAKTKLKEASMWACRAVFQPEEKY

[1] = target: the molecule itself; assay: crystal structure; Vs.4 with 3'3'-cGAMP (1.2:1 molar ratio), hanging drops, 7% PEG8000, 0.1 M imidazole pH 6.3, 0.2 mM calcium acetate, room temperature; quaternary structure confirmed with PISA
[2] = target: the molecule itself; assay: AUC; sedimentation velocity, 15 µM of each protein in 20 mM Tris and 150 mM NaCl; hexamer
[3] = high incompetent fraction (0.496)

Molecule: Vs.4 from phage T4 (residues 1-88) (from UniProt P13314) F33A
- Kd (cGAMP; [3]): 25.3 nM
- other: ΔH (cGAMP; [3]): -24.3 kcal/mol
- other: ΔS (cGAMP; [3]): -48.8 cal/mol·K

Molecule: Vs.4 from phage T4 (residues 1-88) (from UniProt P13314) F82A
- Kd (cGAMP): 859 nM
- other: ΔH (cGAMP): -23.3 kcal/mol
- other: ΔS (cGAMP): -51.6 cal/mol·K

Molecule: Vs.4 from phage T4 (residues 1-88) (from UniProt P13314) Y8A
- Kd (cGAMP): 158 nM
- other: ΔH (cGAMP): -10.6 kcal/mol
- other: ΔS (cGAMP): -5 cal/mol·K

Molecule: Nc1nc2c(ncn2[C@@H]2O[C@@H]3COP(=O)(O)O[C@H]4[C@@H](O)[C@H](n5cnc6c(N)ncnc65)O[C@@H]4COP(=O)(O)O[C@H]3[C@H]2O)c(=O)[nH]1 [3′3′-cGAMP]
- Kd (Vs.4): 31.4 nM

Molecule: Vs.4 from phage T4 (residues 1-88) (from UniProt P13314) A77Y
- Kd (cGAMP): 1100 nM
- other: ΔH (cGAMP): -5 kcal/mol
- other: ΔS (cGAMP): 10.3 cal/mol·K

B1: Vs.4 from phage T4 (residues 1-88) (natural protein, UniProt P13314 1-88, looked up)
chain: MIEDIKGYKPHTEEKIGKVNAIKDAEVRLGLIFDALYDEFWEALDNCEDCEFAKNYAESLDQLTIAKTKLKEASMWACRAVFQPEEKY
notes: Vs.4, protein of unknown function of bacteriophage T4, residues 1-88; T4 proteome UniProt UP000009087; Hexamer by crystal structure and analytical ultracentrifugation; also called Vs.4 (WT); wild-type Vs.4; source: E. coli BL21(DE3)pLysS, purified (Ni-NTA, SUMO tag cleaved with ULP1, size-exclusion chromatography)
- stoichiometry N [1]: 6

B2: Vs.4 F33A (natural protein, phage T4, UniProt P13314 1-88, looked up)
chain: MIEDIKGYKPHTEEKIGKVNAIKDAEVRLGLIADALYDEFWEALDNCEDCEFAKNYAESLDQLTIAKTKLKEASMWACRAVFQPEEKY
notes: Vs.4 of bacteriophage T4, residues 1-88, with F33A; source: E. coli BL21(DE3)pLysS, purified (Ni-NTA, SUMO tag cleaved with ULP1, size-exclusion chromatography)
- binding result [2]: binds
